Measurements as given in patent publication US20260234238A1 (GEOVISTA, published 2026).
Where “and” joins values, the source holds several entries; their conditions need not be identical. Equal entries are not always repeated.

What was measured:
[1] = molecular target: T1, recombinant histidine-tagged canine interleukin-13 (cIL-13) (canine, UniProt Q9N0W9 19-131, N-linked glycans attached to asparagine residues at positions 38, 48, 56, and 71); experiment: cell-based or functional assay
T1 sequence: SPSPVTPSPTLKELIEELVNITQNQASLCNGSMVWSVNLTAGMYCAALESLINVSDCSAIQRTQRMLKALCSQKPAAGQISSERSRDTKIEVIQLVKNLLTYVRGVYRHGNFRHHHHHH

[2] = molecular target: T1, recombinant histidine-tagged canine …; experiment: cell-based or functional assay; remark: listed apart in the source
[3] = molecular target: T1, recombinant histidine-tagged canine …; experiment: cell-based or functional assay; remark: listed apart in the source
[4] = molecular target: T1, recombinant histidine-tagged canine …; experiment: ELISA, cIL-13-coated plate
[5] = molecular target: T1, recombinant histidine-tagged canine …; experiment: ELISA, His-tagged cIL-13 on nickel-coated plate
Method: In one embodiment of the present disclosure, recombinant canine IL-13 (cIL-13) protein with a histidine tag was dispensed onto nickel-coated plates (Thermo Fisher, #15442) at 100 ng/100 μL per well and incubated at room temperature for 1 hour. The plates were then washed three times with 1×PBST, and serial dilutions of the chimeric antibodies in 1×PBS were added and incubated at room temperature for 1 hour to allow antigen-antibody binding. After three washes with 1×PBST, an HRP-conjugated secondary antibody that cross-reacts with canine antibodies was diluted 1:100 in casein buffer and added at 100 μL per well, followed by incubation at 37° C. for 30 minutes. The HRP-conjugated secondary antibody used may be Jackson ImmunoResearch, #115-036-071, and the casein buffer may be Thermo Fisher Scientific, #37528; however, these examples are not intended to limit the scope of the present disclosure. After another three washes with 1×PBST, TMB was added to initiate color development, and the reaction was terminated by the addition of an equal volume of 1.0 N sulfuric acid.

inhibition of IL-13-dependent TF-1 cell proliferation, IC50 [1]: 2.9 to 4.2 nM | TF-1 cell proliferation inhibition IC50 (Average) [2]: 437 ng/ml and 2.91 nM | TF-1 cell proliferation inhibition IC50 (Test 1) [2]: 494 ng/ml and 3.29 nM | TF-1 cell proliferation inhibition IC50 (Test 2) [2]: 492 ng/ml and 3.28 nM | TF-1 cell proliferation inhibition IC50 (Test 3) [2]: 325 ng/ml and 2.17 nM | Inhibitory Activity on TF-1 Cell Proliferation IC50 [3]: 3.97 nM | EC50 [4]: 0.0694 µg/mL and 0.463 nM | EC50 [5]: 0.218 µg/mL and 1.45 nM
B1: 32A10-#20 mouse monoclonal antibody (antibody, V domains shown)
VH: EVQLQQSGPELVKPGASVKVSCKTSGYSFTDYPIYWVRQSHGESLEWIGYIDPYNGGTTYNQNFKDKATLTVDKSSSTAFMHLNSLTSEDSAVYFCATAVVATDVMENWGQGTSVTVSS
VL: DIVLTQSQKFMSTSVGDRVSITCKASQNVRNAVAWFQQKPGQSPKALIYLASNRYTGVPDHFTGSGSGTDFTLTISNVQSEDLADYFCLQHWNYPLTFGAGTKLELK
notes: also called Mouse 32A10; Parental antibody (Mouse 32A10)
